Assay: yeast display, Sf9 membrane polyspecificity reagent, FACS + sequencing; frameworks hold sequencing errors
How it was run: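 In a synthetic yeast display library (Saccharomyces cerevisiae BJ5465), nanobody expression was induced with galactose for 36–48 hours. FACS gates were set low and high (top ~1%) using anti-HA fluorescence for expression and streptavidin fluorescence for binding of the Sf9 membrane reagent. Each polyreactivity label is drawn from the gate of origin.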

Sequence: QVQLVESGGGLVQAGGSLRLSCAASGSTFDYNAMGWYRQAPGKERELVAAISARGTSTYYADSVKGRFTISRDNAKTTVYLQMNSLKPEDTAVYYCAARIHTAYYIFGYWGQGTQVTVSS
- polyreactivity (PSR sort gate): high polyreactivity

Sequence: QVQLVESGGGLVQAGGSLRLSCAASGSIFNYYAMGWYRQAPGKERELVAGITTSGGSTYYADSVKGRFTISRDNAKNTVYLQMNSLKPEDTAVYYWAAYDYISSTYFLDDYWGQGTQVTVSS
- polyreactivity (PSR sort gate): low polyreactivity

Sequence: QVQLVESGGGLVQAGGSLRLSCAASGLTLYGYTMGWYRQAPGKERELGATITTGGDYTYYADSVKGRFTISRDNAKNTVYLQMNRLKPVDTAVYYCAAYSYGWDYSYDYWGQVTQVTVSS
- polyreactivity (PSR sort gate): low polyreactivity

Sequence: QVHLQESGGGLVQAVGSLRLSCAASGNISEYYDMGWYRQAPGKERKFVAGIDFGAITNYADSVKGRFTISRDNAKNTEYLQMRSLKPEDTAVYYCAAGVYDWYAYDYWGQGTQVTVSS
- polyreactivity (PSR sort gate): high polyreactivity

Sequence: QVQLVESGGGLVQAGGSLRLSCAASGRTFNLYAMGWSRQAPGKERELVARITSGGSTNYADSEKGRFTISRDNAKNTVYLQMNSLKPEDTAVYYCAASSYNRGDYWGQGTQVTVSS
- polyreactivity (PSR sort gate): high polyreactivity

Sequence: KVQLVESGGGLVQAGGRLRLSCAASGFIFVPYPMGWYRQAPGKERELVATITGRGDSTYYADSVKGRFTISRDNAMNTVYLQMNSLKTDDTAVYYCAVDPIRLWAYDYWGQGTQVNVSS
- polyreactivity (PSR sort gate): low polyreactivity

Sequence: QVQLVESGGGLVQAGGSLRLSCAASGSTFRVYAMGWYRQATVKERELVAAISGSGGSTYYADSVKGRFTISRYNAKNSVYLQMNSLKPEDTAVYYCAARSWYTEYYWGQGTQVSVSS
- polyreactivity (PSR sort gate): high polyreactivity

Sequence: QVQLVESGGGLVQAGGSLRLSCAASGYTLADYAMGWYRQAPGKERELVAAISSGGITSYADSVKGRFTISRDNAKNTVYLQMNSLKPEDTAVYYCNAAIVGFTRAYQYDYWGQGTQVTVSS
- polyreactivity (PSR sort gate): high polyreactivity

Sequence: QVQLVESGGGLVQAGGSLRLSCAASGFILYGNTMGWYRQAPGKERELVAAISWSGGNTRYADSVKARFTISRDNAKNTVYLQMNSLQPEDTAVYYCAAYSNYVWSIRRDYWGQGTQVTVSS
- polyreactivity (PSR sort gate): low polyreactivity

Sequence: QVQLVESGGGLVQAGGSLRLSCAASGSIFVYYAMGWYRQAPGKERELVATISSDVSTYYSDSVKGRFTISRDNAKNTVYVQMNRLKPEDTAVDYCAATVSFDWAYSFSLDLEDDYWGQGTQVTVSS
- polyreactivity (PSR sort gate): low polyreactivity

Sequence: QGQLVESGGGLVQAGGSLRLSCAASGRTFTINAMGWYRQATGKERELHAAISSDGNTNYADSVKGRFTISRDNAKNTVYLQMNSLKPEDTAVYYCAADWVRYSYRHGSYRVYYWGQGTQVTVSS
- polyreactivity (PSR sort gate): high polyreactivity

Sequence: QVQLVESGGGLVQAGGTLRLSCAASGITFSDYTMGWYRQAPGKERELVDAISTSGGSTYYADSVKGRFTISRDNAKNTVYLQMNSQKPEDTAVYYCAAISAVTLRGYYYWGQRTQVTVSS
- polyreactivity (PSR sort gate): high polyreactivity

Sequence: QVQLVESGGGLVQAGGSLRLSCAASGLIFKVYAMGWYRQAPWKERELVAAITYSGGSTDYADSVKGRFTISRDNAKNTVYLQMNSLTPEDTAVYYCNVEKVGHVNSYGYDYWGQGTQVNVSS
- polyreactivity (PSR sort gate): low polyreactivity

Sequence: QVQLVESGGGLVQAGGSLRLSCAASGRTFYGYAMGWYRQAPGKERELVAAISVSGGSTYYADSVKGRFTISRDNAKNTVYLQMNSLKPEDTAVYYCATKGLFTNSPLYVSAYDYWGQGTQVTVSS
- polyreactivity (PSR sort gate): low polyreactivity

Sequence: QVQLVESGGGLVKAGGILRLSCAASGSIFGRYVMGWYRPAPGKEREVVAAINRSGGRTYYADSVKGRFSISRDNAKYTVYLQMNSLKPEDTAVYYCATYTGSSASKEVPYDYWGQGTQVTVSS
- polyreactivity (PSR sort gate): high polyreactivity

Sequence: QVQLVESGGGIVQAGGSLRLSWAASGRNFYRNAMGWYRQAPGKERELVAAISRSGGSTYYADSVKGRFTISRDNAKNTVYLQMNSLKAADTAVYYFNAYRYLQSGPPRYREHGSWGQGTQVNVSS
- polyreactivity (PSR sort gate): low polyreactivity

Sequence: QVQLVESGGGLVQAGGSLRLSCAASGFTFGVYAMGWYRQAPGKERELVAAITATGGSTYYADSVKGRFTISRDNAKNTVYLQMNSLKPEDTAVYYCAADLDGTLSVYDYHTTGDDYWGQGTQVTVSS
- polyreactivity (PSR sort gate): low polyreactivity

Sequence: QVQLVESGGGLVQPGGSLRLSCAASGSIFGYNAMGWYRPAPGKERELVAVITRSDGSTYYADSVKGRFTISRDNAKNTVYLQMNSLKPEDTAVYYCNAETHVYYWGVVIYEYNYWGQGTQVTVSS
- polyreactivity (PSR sort gate): low polyreactivity

Sequence: QVQLVESGGGLVQAGGSLRLSCAASGFTIISYTMGWYRQAPGKDRELVAAIRGGGRTYYADSVKGRFTISRDNAKNTVYLQMNSLKPEDTAVYYCAARLRYGGHYDYWGQGTQVTVSS
- polyreactivity (PSR sort gate): high polyreactivity

Sequence: QVQLVESGGGLVQAGGSLRLSCAASGSIFNPYVMGWYRQAPGKERELVAAISSSGGRTYYADSVKGRFTLSRDNAKNTVDFQMNSLKPEDTAVYYCAAKPRQGYDYWGQGTQVTVSS
- polyreactivity (PSR sort gate): high polyreactivity

Sequence: QVQLVESGGGLVQAGGSLRLICDASGSTFGYYAIGGYRQAPGKERELVAVINKSGGRTYYADSVKGRFTISRDNAKNTVYLQMNSLKPEDTAVYYCATRVTSTRHDYWGQGTQVTVSS
- polyreactivity (PSR sort gate): high polyreactivity

Sequence: QVQLVESGGGLVQAGGSLRLSCAASGRIYPYYAMGWYRQAPGKERELVAAITTRGGSTYYADSVKGRFTISRDNAKNTVYLQMNSLKPEDTAVYYCAAVTFGRMEYWGQGTQVTVSS
- polyreactivity (PSR sort gate): low polyreactivity

Sequence: QVQLVESGGGLVQAGGSLRLSCAASGLIFYDNLGWYRQAPGKERELVAAISSSGGSTSYADSVKGRFTISRDNAKNTVYLQMNSLKPEDTAVYYCAADSYPAYLGFVGFDYWGQGTQVTVSS
- polyreactivity (PSR sort gate): low polyreactivity

Sequence: QVQLVESGRGLVQAGGSLRLSCAASGRIFTHYAMGWYRQAPGKERELVAAITSSSGSTYYADSVKGRFTISRDNAKNTVYLPMISLKPEDTAVYYCAASRYGKNGKFHYWGQGTQVTVSS
- polyreactivity (PSR sort gate): high polyreactivity

Sequence: QVQLVESGGGLVQAGGSLRLSCAASGTYFGYAMGWYRQAPGKETELVAAITSGGSTYYADSVKGRFTISRDNAKNTVYLQMNSLKPEDTADYYCARVYSRWSYRYDYWGQGSQVTVSS
- polyreactivity (PSR sort gate): low polyreactivity

Sequence: QVQLVESGGGLVHAGGSLRLSCAASGFIYPGNAKGWYIQAPGKERELVAAISNSGSRTYYADSVKGRFTISRDHAMNTVYLQMNSLKPEDTAVYYCNADVDNRGWPYDYWGQGTQVNVSS
- polyreactivity (PSR sort gate): low polyreactivity

Sequence: QVQLVESGGGLVQAGGSLRLSCAASGRTFYYYVMGWYRQAPGKERELVAAINSGGNTNYADSVKGRFTISRDNAKNTVYLQMNSLKPEDTAVYYCAADHYRSFRYFESSSTHDYWGQGTQVNVSS
- polyreactivity (PSR sort gate): low polyreactivity

Sequence: QVQLVESGGGLVQAGGSLRLSCAASGRIFFGYAMGWYRQAPGKERELVATISYNDTSTYYADSVKGRFTISRDNAKNTVYLQMNSLKPEDTAVYYCAKSLGAPASDDYWGQGTQVTVSS
- polyreactivity (PSR sort gate): low polyreactivity

Sequence: LVQAGGSLRLSCAASVNTSGKNAMGWYRQAPGKERELVAAISSAGSTNYADSVKGRFTISRDNAKNTVYLQMNSLKPEDTAVYYCNAVRRLATVKTYRFNYWGQGTQVTVSS
- polyreactivity (PSR sort gate): low polyreactivity

Sequence: QVQHVESGGGLVQAGGSLRLSCAASGRTFAKYAMRWSRQAPGKERELVAAIRWSGGSTYYADSVKGRFTISRDNAKNTVYLQMNSLKPEDTAVYYCAARPALWGRYRGYDYWGQGTQVTVSS
- polyreactivity (PSR sort gate): high polyreactivity

Sequence: QVQLVESRGCLVQAGGSLRLSCAASGRIFYYYDMGWYRQAPGKERELVAAITYSDSSTYADSVKRRFTISRDNAKNTVYLQMNSLKPEDTAVYYCAADYVYPGVRLEMDYWGQGTQVTVSS
- polyreactivity (PSR sort gate): low polyreactivity

Sequence: QVQLVESGGGLVQAGGSLRLSCAASGSTFDLYAMGWYRPAPGKERELVAAITSSGGRTYYADSVKGRFTISRDNAKNTVYLQMNSLKPEDTAVYYCAATSSGGYYDGYNYWGQGTQVTVSS
- polyreactivity (PSR sort gate): high polyreactivity

Sequence: QVQLVESGGGLVQAGGSLRLSCAASGITSNSYAMGWYRQAPGKERELVATITSGGSTNYADSVKGRFTISRDNAKNSVYLQMNSLKPEDTAVYYCNREDWLPTQYDYWGQGTQVTVSS
- polyreactivity (PSR sort gate): low polyreactivity

Sequence: QVQLVESGGGLVQAGGSLRLSCAASGFTFPQNAKGWYRQAPGKERELVAAITNGGTTYYADSVKGRFTISRDNAKNTVYLQMNSLKPEDTAVYYCAAYTYRYGSFKYGYWGQGTQVTVSS
- polyreactivity (PSR sort gate): low polyreactivity

Sequence: QVQLVESGGGLVQAGGSLRLSCAASGRTVTYYVMGWYRQAPGNERELVARITSSGITYYADSVKGRFTISRDNAKNTVYLQMNSLKPEDTAVYYCAKRRNAWTPYRFDYWGQGTQVTVSS
- polyreactivity (PSR sort gate): high polyreactivity

Sequence: QVQLVESGGGLVQAGGSLRLSCAASGSTFYFYAMGWYRQAPGKERELVAAITYSGDRTRYADSVKGRFTISRDNAKNTVYLQMNSLKPEDTAVYYCAARYVGARNAYRMGYWGQGTQVTVSS
- polyreactivity (PSR sort gate): high polyreactivity

Sequence: QVQLVESGGGLVQAGGSLRLSCAASGRTFSYYAMGWYRQAPGKERELVAYITSSGGSTYYADSVKGRFTISRDNAKNTVYLQMNSLKPEDTAVYYCATRGGSRARGMDYWGQGTQVTVSS
- polyreactivity (PSR sort gate): high polyreactivity

Sequence: QVQLVESGGGLVQAGGSLRLTCAASGNTFSLNPMGWYRQATGTETELVASSTWDGASTYADSVKGRFTISRDNAKNTVFLQMNSLKPEDTAVYFCAADTYRYGRFLKFDYWGQGTQVTVSS
- polyreactivity (PSR sort gate): low polyreactivity

Sequence: QVQLVESGGGLVQAGGSLRLRCAASGITFRNYAMGWYRQAPGKEMEFVATISRRAGSTYYADSVKGRFTISRDNAKNTVYLQMNRLKPEDTAVYYCAVRPSYVYFLGARYDYWGQGTQVTVSS
- polyreactivity (PSR sort gate): high polyreactivity

Sequence: QVQLVESGGGLVQAGGSLRLSCAASGFIIYRYAMGWYRQAPGKEWELVAAISKRGGSTYYADSVKGRFTISRDNAKNTVYLQMNSLKPEDTAVYYCAANRSYVDSTSFGKAYGYWGQGTQVTVSS
- polyreactivity (PSR sort gate): high polyreactivity

Sequence: QVQLVESGGGLVQAGGSLRLSCAPSGITFYGNDMGWYRQAPGKERELVAAISSGGITNYADSVKGRFTISRDNAKNSVYLQMNSLKPEDTAVYYCAKDLLYYHITPDGYTWYLPEDSWGQGTQVTVSS
- polyreactivity (PSR sort gate): low polyreactivity

Sequence: QVQLVESGGGLVQAGGSLRLSCAASGSIFYFNAMGWYRQAPGKERELVAAISSGGGTNYADSVKGRFTISRDNAKNTVYLQMNSLKPEDTAVYYCAAAVSLFYPTWYYFSYDYWGQGTQVTVSS
- polyreactivity (PSR sort gate): low polyreactivity

Sequence: QVQLVESGGGLVQAGGSLRLSCAASYYAMGWYRQAPAKERELVASISSGGSTNYADSVKGRFTISRDNAKNTVFFQMNSLKPEDTAVYYCAADVADGVWVKIADEYWGQGTQVTVSS
- polyreactivity (PSR sort gate): low polyreactivity

Reference: the nanobody polyreactivity screen of Harvey et al. (2022)
